The text below walks through data of patent US20140234351A1, “CANCER VACCINES AND VACCINATION METHODS” (ImmunoCellular Therapeutics, Ltd., priority 2013, published 2014).

The target in the assay is HLA-A*0201 molecules on TAP-deficient T2 cells (human). The experiment in a line: T2 cell binding assay, fluorescence index (MFI peptide - MFI untreated)/MFI untreated. Conditions: remark: other sources report otherwise.

The molecule VMAGVGSPYV [HER2/neu 773-782 HLA-A2 peptide] showed an MFI index above 1.5.
